Biological target: microtubules (MT fraction from mouse brain) (mouse (endogenous in mouse brain)) (UniProt P68369)
Experiment: co-sedimentation

Substance	MT-bound fraction	MT-unbound fraction
recombinant human tau lacking both PRR2 and MTBD (ΔPRR2-MTBD) (from UniProt P10636-6 1-383) (natural protein)	0.059	0.941
recombinant human tau lacking the proline-rich region 2 (ΔPRR2) (from UniProt P10636-6 1-383) (natural protein)	0.839	0.161
recombinant human tau, 0N4R variant (WT tau) (from UniProt P10636-6 1-383) (natural protein)	0.989	
